According to patent publication US20170189519A1:

Experiments:
Conditions in all cases: remark: other sources report otherwise
s127H1-t2-cl18long [1] = experiment: SEC-MALS with Fab fragments, protein of fraction 3 (ca. 110 kD alone)
s127H1-t2-cl18long [2] = experiment: SEC-MALS with Fab fragments, protein of fraction 3
26H1 = experiment: ELISA, coated CR6261, P. pastoris culture medium
s127H1-t2-cl18long [3] = target: s127H1-t2-cl18long

Row | Binder | size of the complex formed (s127H1-t2-cl18long [1]) [kD] | Fab fragments bound per trimer (Fab fragments) (s127H1-t2-cl18long [2]) | CR6261 binding signal (26H1) | Kd (s127H1-t2-cl18long [3]) [nM]
1 | Fab fragment of CR6261 (Fab, V domains shown) VH: EVQLVESGAEVKKPGSSVKVSCKASGGPFRSYAISWVRQAPGQGPEWMGGIIPIFGTTKYAPKFQGRVTITADDFAGTVYMELSSLRSEDTAMYYCAKHMGYQVRETMDVWGKGTTVTVSS VL: QSVLTQPPSVSAAPGQKVTISCSGSSSNIGNDYVSWYQQLPGTAPKLLIYDNNKRPSGIPDRFSGSKSGTSATLGITGLQTGDEANYYCATWDRRPTAYVVFGGGTKLTVLG | 215 | 3 | – | –
2 | CR6261 (antibody, V domains shown) VH: EVQLVESGAEVKKPGSSVKVSCKASGGPFRSYAISWVRQAPGQGPEWMGGIIPIFGTTKYAPKFQGRVTITADDFAGTVYMELSSLRSEDTAMYYCAKHMGYQVRETMDVWGKGTTVTVSS VL: QSVLTQPPSVSAAPGQKVTISCSGSSSNIGNDYVSWYQQLPGTAPKLLIYDNNKRPSGIPDRFSGSKSGTSATLGITGLQTGDEANYYCATWDRRPTAYVVFGGGTKLTVLG | – | – | 78800 | 0.7
